According to patent publication US20230235027A1:

Tests used:
[1] = target: L452R (SARS-CoV-2); experiment: kinetic measurement, method not stated; table row L452R
[2] = target: K417N (SARS-CoV-2); experiment: kinetic measurement, method not stated; table row K417N
[3] = target: E484K (SARS-CoV-2); experiment: kinetic measurement, method not stated; table row E484K
[4] = target: N501Y (SARS-CoV-2); experiment: kinetic measurement, method not stated; table row N501Y
[5] = target: A475V (SARS-CoV-2); experiment: kinetic measurement, method not stated; table row A475V
[6] = target: B.1.351 (Gamma); experiment: kinetic measurement, method not stated; table row B.1.351 (Gamma)
[7] = target: F490L (SARS-CoV-2); experiment: kinetic measurement, method not stated; table row F490L
[8] = target: N439K (SARS-CoV-2); experiment: kinetic measurement, method not stated; table row N439K

Sequence of NIH-CoVnb-112 (VHH) (VHH): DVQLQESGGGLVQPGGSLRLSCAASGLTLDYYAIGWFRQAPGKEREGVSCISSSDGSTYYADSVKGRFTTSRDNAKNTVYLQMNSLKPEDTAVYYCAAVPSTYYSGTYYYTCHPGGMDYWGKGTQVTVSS

NIH-CoVnb-112 (VHH)
koff [1]: 0.00127 s⁻¹ | kon [1]: 209000 M⁻¹ s⁻¹ | koff [2]: 0.000157 s⁻¹ | kon [2]: 120000 M⁻¹ s⁻¹ | koff [3]: 0.000304 s⁻¹ | kon [3]: 256000 M⁻¹ s⁻¹ | koff [4]: 0.000428 s⁻¹ | kon [4]: 153000 M⁻¹ s⁻¹ | koff [5]: 0.000209 s⁻¹ | kon [5]: 169000 M⁻¹ s⁻¹ | koff [6]: 0.000705 s⁻¹ | kon [6]: 201000 M⁻¹ s⁻¹ | koff [7]: 0.000926 s⁻¹ | kon [7]: 158000 M⁻¹ s⁻¹ | koff [8]: 0.000302 s⁻¹ | kon [8]: 189000 M⁻¹ s⁻¹
